From paper PMC9352680, “A comprehensive thermodynamic model for RNA binding by the Saccharomyces cerevisiae Pumilio protein PUF4”

T1: PUF4 RNA-binding domain (Saccharomyces cerevisiae, UniProt P25339 537-888)
T1 sequence: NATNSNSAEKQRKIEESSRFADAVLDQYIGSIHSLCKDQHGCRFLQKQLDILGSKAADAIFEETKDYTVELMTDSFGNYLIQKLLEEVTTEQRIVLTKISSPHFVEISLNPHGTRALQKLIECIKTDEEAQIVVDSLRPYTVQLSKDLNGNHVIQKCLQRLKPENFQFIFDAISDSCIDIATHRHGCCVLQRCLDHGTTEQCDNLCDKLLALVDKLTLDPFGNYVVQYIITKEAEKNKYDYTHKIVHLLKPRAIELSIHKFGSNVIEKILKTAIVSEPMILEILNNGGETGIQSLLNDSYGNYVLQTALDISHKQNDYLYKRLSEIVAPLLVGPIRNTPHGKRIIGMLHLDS


Target: T1, PUF4 RNA-binding domain
Assay: Mg; RNA-MaP; 20 mM Na-HEPES pH 7.4, 30 mM KOAc, 0.75 mM MgCl2, 0.1% Tween-20, 5% glycerol, 0.1 mg/mL BSA, 2 mM DTT; 25 C; 0.0125-409.6 nM protein
Settings: tags: N-His6-TEV cleaved; C-SNAP kept, Cy3B-labelled; label: tethered on chip by stalled RNA polymerase

Row | Binder | Kd
1 | Ic_S4_P4E.1_K4.1_C4.1_H4.1_A4.1_[T5C]_[A6C]_F4.1_[A9T]_T4.1 (ssRNA) RNA: UUUGACAACUGAUCGUUCUUUCUUGUACCUUUUUCUUUCUCGAUCAGUUGUCUUU | 10.8 nM
2 | Ic_S4_P4E.1_K4.1_C4.1_H4.1_A4.1_[T5C]_F4.1_[T8C]_[A9T]_T4.1 (ssRNA) RNA: UUUGACAACUGAUCGUUCUUUCUUGUACAUCUUUCUUUCUCGAUCAGUUGUCUUU | 11.1 nM
3 | Ic_S4_P4E.1_K4.1_C4.1_H4.1_A4.1_[T5C]_[A6C]_F4.1_T4.1 (ssRNA) RNA: UUUGACAACUGAUCGUUCUUUCUUGUACCUUAUUCUUUCUCGAUCAGUUGUCUUU | 1.74 nM
4 | Ic_S4_P4E.1_K4.1_C4.1_H4.1_A4.1_[T5C]_[T7A]_F4.1_[A9C]_T4.1 (ssRNA) RNA: UUUGACAACUGAUCGUUCUUUCUUGUACAAUCUUCUUUCUCGAUCAGUUGUCUUU | 22.1 nM
5 | Ic_S4_P4E.1_K4.1_C4.1_H4.1_A4.1_[T5C]_[A6T]_F4.1_[T8C]_[A9T]_T4.1 (ssRNA) RNA: UUUGACAACUGAUCGUUCUUUCUUGUACUUCUUUCUUUCUCGAUCAGUUGUCUUU | 32.5 nM
6 | Ic_S4_P4E.1_K4.1_C4.1_H4.1_A4.1_[T5C]_[A6T]_F4.1_[A9T]_T4.1 (ssRNA) RNA: UUUGACAACUGAUCGUUCUUUCUUGUACUUUUUUCUUUCUCGAUCAGUUGUCUUU | 6.37 nM
7 | Ic_S4_P4E.1_K4.1_C4.1_H4.1_A4.1_[T5C]_[A6T]_[T7G]_F4.1_[T8C]_T4.1 (ssRNA) RNA: UUUGACAACUGAUCGUUCUUUCUUGUACUGCAUUCUUUCUCGAUCAGUUGUCUUU | 786 nM
8 | Ic_S4_P4E.1_K4.1_C4.1_H4.1_A4.1_[T5C]_[A6T]_F4.1_[T8A]_[A9C]_T4.1 (ssRNA) RNA: UUUGACAACUGAUCGUUCUUUCUUGUACUUACUUCUUUCUCGAUCAGUUGUCUUU | 108 nM
9 | Ic_S4_P4E.1_K4.1_C4.1_H4.1_A4.1_[T5C]_[T7C]_F4.1_[T8C]_[A9G]_T4.1 (ssRNA) RNA: UUUGACAACUGAUCGUUCUUUCUUGUACACCGUUCUUUCUCGAUCAGUUGUCUUU | 72 nM
10 | Ic_S4_P4E.1_K4.1_C4.1_H4.1_A4.1_[T5C]_F4.1_[T8A]_[A9G]_T4.1 (ssRNA) RNA: UUUGACAACUGAUCGUUCUUUCUUGUACAUAGUUCUUUCUCGAUCAGUUGUCUUU | 11 nM
11 | Ic_S4_P4E.1_K4.1_C4.1_H4.1_A4.1_[T5C]_[A6T]_[T7A]_F4.1_[T8C]_[A9T]_T4.1 (ssRNA) RNA: UUUGACAACUGAUCGUUCUUUCUUGUACUACUUUCUUUCUCGAUCAGUUGUCUUU | 58.3 nM
12 | Ic_S4_P4E.1_K4.1_C4.1_H4.1_A4.1_[T5C]_[T7A]_F4.1_[T8C]_[A9C]_T4.1 (ssRNA) RNA: UUUGACAACUGAUCGUUCUUUCUUGUACAACCUUCUUUCUCGAUCAGUUGUCUUU | 99.9 nM
13 | Ic_S4_P4E.1_K4.1_C4.1_H4.1_A4.1_[T5C]_[A6T]_[T7C]_F4.1_[A9C]_T4.1 (ssRNA) RNA: UUUGACAACUGAUCGUUCUUUCUUGUACUCUCUUCUUUCUCGAUCAGUUGUCUUU | 23.3 nM
14 | Ic_S4_P4E.1_K4.1_C4.1_H4.1_A4.1_[T5C]_[T7G]_F4.1_[T8C]_[A9T]_T4.1 (ssRNA) RNA: UUUGACAACUGAUCGUUCUUUCUUGUACAGCUUUCUUUCUCGAUCAGUUGUCUUU | 55.1 nM
15 | Ic_S4_P4E.1_K4.1_C4.1_H4.1_A4.1_[T5C]_[A6T]_[T7G]_F4.1_[T8G]_[A9T]_T4.1 (ssRNA) RNA: UUUGACAACUGAUCGUUCUUUCUUGUACUGGUUUCUUUCUCGAUCAGUUGUCUUU | 975 nM
16 | Ic_S4_P4E.1_K4.1_C4.1_H4.1_A4.1_[T5C]_[T7A]_F4.1_[T8C]_[A9T]_T4.1 (ssRNA) RNA: UUUGACAACUGAUCGUUCUUUCUUGUACAACUUUCUUUCUCGAUCAGUUGUCUUU | 39.4 nM
17 | Ic_S4_P4E.1_K4.1_C4.1_H4.1_A4.1_[T5C]_[A6T]_[T7C]_F4.1_[T8C]_[A9G]_T4.1 (ssRNA) RNA: UUUGACAACUGAUCGUUCUUUCUUGUACUCCGUUCUUUCUCGAUCAGUUGUCUUU | 552 nM
18 | Ic_S4_P4E.1_K4.1_C4.1_H4.1_A4.1_[T5C]_[A6T]_[T7G]_F4.1_[T8C]_[A9G]_T4.1 (ssRNA) RNA: UUUGACAACUGAUCGUUCUUUCUUGUACUGCGUUCUUUCUCGAUCAGUUGUCUUU | 916 nM
19 | Ic_S4_P4E.1_K4.1_C4.1_H4.1_A4.1_[T5C]_[A6T]_[T7A]_F4.1_[T8A]_T4.1 (ssRNA) RNA: UUUGACAACUGAUCGUUCUUUCUUGUACUAAAUUCUUUCUCGAUCAGUUGUCUUU | 21.7 nM
20 | Ic_S4_P4E.1_K4.1_C4.1_H4.1_A4.1_[T5C]_[T7G]_F4.1_[A9C]_T4.1 (ssRNA) RNA: UUUGACAACUGAUCGUUCUUUCUUGUACAGUCUUCUUUCUCGAUCAGUUGUCUUU | 22.9 nM
21 | Ic_S4_P4E.1_K4.1_C4.1_H4.1_A4.1_[T5C]_[T7C]_F4.1_[T8A]_T4.1 (ssRNA) RNA: UUUGACAACUGAUCGUUCUUUCUUGUACACAAUUCUUUCUCGAUCAGUUGUCUUU | 16.9 nM
22 | Ic_S4_P4E.1_K4.1_C4.1_H4.1_A4.1_[T5C]_[A6T]_[T7C]_F4.1_[T8G]_[A9T]_T4.1 (ssRNA) RNA: UUUGACAACUGAUCGUUCUUUCUUGUACUCGUUUCUUUCUCGAUCAGUUGUCUUU | 138 nM
23 | Ic_S4_P4E.1_K4.1_C4.1_H4.1_A4.1_[T5C]_[A6T]_[T7A]_F4.1_[T8C]_[A9G]_T4.1 (ssRNA) RNA: UUUGACAACUGAUCGUUCUUUCUUGUACUACGUUCUUUCUCGAUCAGUUGUCUUU | 563 nM

Row | Binder | Kd
24 | Ic_S4_P4E.1_K4.1_C4.1_H4.1_A4.1_[T5C]_[T7C]_F4.1_[A9T]_T4.1 (ssRNA) RNA: UUUGACAACUGAUCGUUCUUUCUUGUACACUUUUCUUUCUCGAUCAGUUGUCUUU | 4.37 nM
25 | Ic_S4_P4E.1_K4.1_C4.1_H4.1_A4.1_[T5C]_[A6T]_[T7A]_F4.1_[T8A]_[A9C]_T4.1 (ssRNA) RNA: UUUGACAACUGAUCGUUCUUUCUUGUACUAACUUCUUUCUCGAUCAGUUGUCUUU | 404 nM
26 | Ic_S4_P4E.1_K4.1_C4.1_H4.1_A4.1_[T5C]_[A6T]_F4.1_[T8C]_[A9C]_T4.1 (ssRNA) RNA: UUUGACAACUGAUCGUUCUUUCUUGUACUUCCUUCUUUCUCGAUCAGUUGUCUUU | 94.5 nM
27 | Ic_S4_P4E.1_K4.1_C4.1_H4.1_A4.1_[T5C]_[A6T]_[T7G]_F4.1_[A9T]_T4.1 (ssRNA) RNA: UUUGACAACUGAUCGUUCUUUCUUGUACUGUUUUCUUUCUCGAUCAGUUGUCUUU | 54.6 nM
28 | Ic_S4_P4E.1_K4.1_C4.1_H4.1_A4.1_[T5C]_[A6T]_[T7A]_F4.1_[T8C]_T4.1 (ssRNA) RNA: UUUGACAACUGAUCGUUCUUUCUUGUACUACAUUCUUUCUCGAUCAGUUGUCUUU | 279 nM
29 | Ic_S4_P4E.1_K4.1_C4.1_H4.1_A4.1_[T5C]_[A6T]_[T7C]_F4.1_[T8A]_T4.1 (ssRNA) RNA: UUUGACAACUGAUCGUUCUUUCUUGUACUCAAUUCUUUCUCGAUCAGUUGUCUUU | 96.2 nM
30 | Ic_S4_P4E.1_K4.1_C4.1_H4.1_A4.1_[T5C]_[A6T]_[T7A]_F4.1_[A9C]_T4.1 (ssRNA) RNA: UUUGACAACUGAUCGUUCUUUCUUGUACUAUCUUCUUUCUCGAUCAGUUGUCUUU | 15.8 nM
31 | Ic_S4_P4E.1_K4.1_C4.1_H4.1_A4.1_[T5C]_F4.1_[T8G]_[A9C]_T4.1 (ssRNA) RNA: UUUGACAACUGAUCGUUCUUUCUUGUACAUGCUUCUUUCUCGAUCAGUUGUCUUU | 14.3 nM
32 | Ic_S4_P4E.1_K4.1_C4.1_H4.1_A4.1_[T5C]_[A6T]_[T7G]_F4.1_T4.1 (ssRNA) RNA: UUUGACAACUGAUCGUUCUUUCUUGUACUGUAUUCUUUCUCGAUCAGUUGUCUUU | 3.86 nM
33 | Ic_S4_P4E.1_K4.1_C4.1_H4.1_A4.1_[T5C]_[A6T]_F4.1_[A9C]_T4.1 (ssRNA) RNA: UUUGACAACUGAUCGUUCUUUCUUGUACUUUCUUCUUUCUCGAUCAGUUGUCUUU | 13.1 nM
34 | Ic_S4_P4E.1_K4.1_C4.1_H4.1_A4.1_[T5C]_[T7A]_F4.1_[T8A]_T4.1 (ssRNA) RNA: UUUGACAACUGAUCGUUCUUUCUUGUACAAAAUUCUUUCUCGAUCAGUUGUCUUU | 13.8 nM
35 | Ic_S4_P4E.1_K4.1_C4.1_H4.1_A4.1_[T5C]_[A6T]_[T7C]_F4.1_[T8A]_[A9G]_T4.1 (ssRNA) RNA: UUUGACAACUGAUCGUUCUUUCUUGUACUCAGUUCUUUCUCGAUCAGUUGUCUUU | 819 nM
36 | Ic_S4_P4E.1_K4.1_C4.1_H4.1_A4.1_[T5C]_[A6T]_[T7C]_F4.1_[T8C]_[A9C]_T4.1 (ssRNA) RNA: UUUGACAACUGAUCGUUCUUUCUUGUACUCCCUUCUUUCUCGAUCAGUUGUCUUU | 394 nM
37 | Ic_S4_P4E.1_K4.1_C4.1_H4.1_A4.1_[T5C]_[T7G]_F4.1_[A9G]_T4.1 (ssRNA) RNA: UUUGACAACUGAUCGUUCUUUCUUGUACAGUGUUCUUUCUCGAUCAGUUGUCUUU | 9.03 nM
38 | Ic_S4_P4E.1_K4.1_C4.1_H4.1_A4.1_[T5C]_[T7G]_F4.1_[T8C]_T4.1 (ssRNA) RNA: UUUGACAACUGAUCGUUCUUUCUUGUACAGCAUUCUUUCUCGAUCAGUUGUCUUU | 69.5 nM
39 | Ic_S4_P4E.1_K4.1_C4.1_H4.1_A4.1_[T5C]_[T7C]_F4.1_[T8G]_[A9C]_T4.1 (ssRNA) RNA: UUUGACAACUGAUCGUUCUUUCUUGUACACGCUUCUUUCUCGAUCAGUUGUCUUU | 90.1 nM
40 | Ic_S4_P4E.1_K4.1_C4.1_H4.1_A4.1_[T5C]_[T7C]_F4.1_[T8A]_[A9G]_T4.1 (ssRNA) RNA: UUUGACAACUGAUCGUUCUUUCUUGUACACAGUUCUUUCUCGAUCAGUUGUCUUU | 270 nM
41 | Ic_S4_P4E.1_K4.1_C4.1_H4.1_A4.1_[T5C]_[T7A]_F4.1_[T8G]_[A9C]_T4.1 (ssRNA) RNA: UUUGACAACUGAUCGUUCUUUCUUGUACAAGCUUCUUUCUCGAUCAGUUGUCUUU | 700 nM
42 | Ic_S4_P4E.1_K4.1_C4.1_H4.1_A4.1_[T5C]_[T7G]_F4.1_[T8C]_[A9C]_T4.1 (ssRNA) RNA: UUUGACAACUGAUCGUUCUUUCUUGUACAGCCUUCUUUCUCGAUCAGUUGUCUUU | 89.4 nM
43 | UCUCUUUGUAUCUGAUCUCUU (ssRNA) [Ic_S1_P4E.1_K4.1_C4.1_H4.1_A4.1_[A6C]_F4.1_[T8G]_T4.1] | 76.5 nM
44 | UCUCUUUGUAAAUCAUCUCUU (ssRNA) [Ib_S1_P4E.1_K4.1_C4.1_H4.1_A4.1_[T5A]_F4.1_[T8C]_T4.1] | 39.1 nM
45 | UCUCUUUGUACAUAAUCUCUU (ssRNA) [Ic_S1_P4E.1_K4.1_C4.1_H4.1_A4.1_[T5C]_F4.1_[T8A]_T4.1] | 6.09 nM
46 | UCUCUUUGUAUUUGAUCUCUU (ssRNA) [Ib_S1_P4E.1_K4.1_C4.1_H4.1_A4.1_[A6T]_F4.1_[T8G]_T4.1] | 458 nM
